Measured values reported in publication PMC13227277, “Targeting CIRP and IL-6R-mediated microglial inflammation to improve outcomes in intracerebral hemorrhage” (Journal of Advanced Research, 2025).

Columns and labels:
microglia = assay: Microglial phagocytosis of CFSE-labeled RBCs; assay type: cell-based, mouse; settings: CFSE-labeled erythrocytes 10:1, 4 h; TCC pretreatment then CIRP; n = 6
Text: (§1) Primary cortical neurons were isolated from embryonic day 16–18 (E16–E18) C57BL/6 mouse embryos as previously described, and cultured in Neurobasal medium supplemented with B27 and GlutaMAX (Gibco).Primary microglial cells were isolated from the cortices of neonatal (day 1) C57BL/6J mice. After disinfection with 75 % ethanol, the skin and skull were removed, and the brains were placed in ice-cold HBSS. The meninges were peeled off, the cortex was collected, and the hippocampus was discarded. Tissues were digested with 0.25 % trypsin at 37 °C for 12 min, centrifuged at 1200 rpm for 5 min, and resuspended in complete medium. The suspension was transferred to a T75 flask with 15 mL of complete medium. After 14 days, microglial cells were harvested by shaking the flask at 270–280 rpm for 30 min, and the supernatant was collected. […]
The functional characteristics of microglial cells encompass not only the release of inflammatory cytokines but also their phagocytic activity. […] RBCs were labeled with either 0.5 μM or 5 μM CFSE, and immunofluorescence analysis determined that 5 μM CFSE was the optimal concentration for labeling (Fig. 7G). […]
(§2) RBCs were isolated via density gradient centrifugation and labeled with CFSE before being stereotactically injected into the right striatum. […] Cell viability was assessed using a Fixable Viability Dye, and flow cytometric analysis was subsequently performed. […]

[1] = system: Cirbp^−/− microglia vs WT microglia; assay: TNF-α and IL-6 release, WT and Cirbp^−/− microglia with rmCIRP, ELISA; assay type: cell-based, mouse; settings: CIRP treatment, 24 h, n = 3–4
Procedure: ELISA was used to quantify CIRP, MD2, IL-6, and TNF-α concentrations in blood and cerebrospinal fluid samples. Samples were processed and stored under standardized conditions to preserve protein integrity. Each target protein was measured using commercial ELISA kits, following the manufacturer’s instructions: Mouse CIRBP ELISA Kit (CSB-EL005440MO, CUSABIO), Mouse TNF-α ELISA Kit (EK282, Lianke Bio), Mouse IL-6 ELISA Kit (CSB-E04639m, CUSABIO), and […].
as §1, with “medium.” for “medium. The suspension was transferred to a T75 flask with 15 mL of complete medium. After 14 days, microglial cells were harvested by shaking the flask at 270–280 rpm for 30 min, and the supernatant was collected.”
as §2

B1: recombinant human CIRP (cold-inducible RNA-binding protein) (natural protein, UniProt Q14011 1-172, looked up)
chain: MASDEGKLFVGGLSFDTNEQSLEQVFSKYGQISEVVVVKDRETQRSRGFGFVTFENIDDAKDAMMAMNGKSVDGRQIRVDQAGKSSDNRSRGYRGGSAGGRGFFRGGRGRGRGFSRGGGDRGYGGNRFESRSGGYGGSRDYYSSRSQSGGYSDRSSGGSYRDSYDSYATHNE
notes: UniProtKB Q14011 is printed for the docking; also called rhCIRP; human CIRBP; source: recombinant
For B1, the “microglial phagocytosis of RBCs” value (microglia) was “significantly reduced in the CIRP group compared to the PBS group” and the “IL-6 and TNF-α secretion, Cirbp^−/− vs WT microglia” value [1] was “marked decrease in the secretion of both IL-6 and TNF-α levels”.
